Experimental data reported in PMC3656419 (Journal of molecular biology, 2008).

Columns and labels:
[1] = target: the molecule itself; test: SEC
[2] = target: the molecule itself; test: AUC
[3] = target: the molecule itself; test: crystal structure

B1: SeMet EcMenD (selenomethionine derivative of Escherichia coli MenD, histidine tag removed by proteolysis) (enzyme, E. coli (K12))
chain: GHMSVSAFNRRWAAVILEALTRHGVRHICIAPGSRSTPLTLAAAENSAFIHHTHFDERGLGHLALGLAKVSKQPVAVIVTSGTAVANLYPALIEAGLTGEKLILLTADRPPELIDCGANQAIRQPGMFASHPTHSISLPRPTQDIPARWLVSTIDHALGTLHAGGVHINCPFAEPLYGEMDDTGLSWQQRLGDWWQDDKPWLREAPRLESEKQRDWFFWRQKRGVVVAGRMSAEEGKKVALWAQTLGWPLIGDVLSQTGQPLPCADLWLGNAKATSELQQAQIVVQLGSSLTGKRLLQWQASCEPEEYWIVDDIEGRLDPAHHRGRRLIANIADWLELHPAEKRQPWCVEIPRLAEQAMQAVIARRDAFGEAQLAHRICDYLPEQGQLFVGNSLVVRLIDALSQLPAGYPVYSNRGASGIDGLLSTAAGVQRASGKPTLAIVGDLSALYDLNALALLRQVSAPLVLIVVNNNGGQIFSLLPTPQSERERFYLMPQNVHFEHAAAMFELKYHRPQNWQELETAFADAWRTPTTTVIEMVVNDTDGAQTLQQLLAQVSHL
modifications: selenomethionine in place of methionine (full incorporation of SeMet)
**Q.** Which “stoichiometry N” value [1] does the source give for B1 here?
**A.** 2

**Q.** And the “stoichiometry N” value [2]?
**A.** 3

**Q.** What about the “stoichiometry N” value [3] of the same protein?
**A.** 4

B2: native EcMenD (Escherichia coli 2-succinyl-5-enolpyruvyl-6-hydroxy-3-cyclohexadiene-1-carboxylate synthase), N-terminal hexahistidine-tagged (enzyme, E. coli (K12), UniProt P17109 1-556, looked up)
chain: MSVSAFNRRWAAVILEALTRHGVRHICIAPGSRSTPLTLAAAENSAFIHHTHFDERGLGHLALGLAKVSKQPVAVIVTSGTAVANLYPALIEAGLTGEKLILLTADRPPELIDCGANQAIRQPGMFASHPTHSISLPRPTQDIPARWLVSTIDHALGTLHAGGVHINCPFAEPLYGEMDDTGLSWQQRLGDWWQDDKPWLREAPRLESEKQRDWFFWRQKRGVVVAGRMSAEEGKKVALWAQTLGWPLIGDVLSQTGQPLPCADLWLGNAKATSELQQAQIVVQLGSSLTGKRLLQWQASCEPEEYWIVDDIEGRLDPAHHRGRRLIANIADWLELHPAEKRQPWCVEIPRLAEQAMQAVIARRDAFGEAQLAHRICDYLPEQGQLFVGNSLVVRLIDALSQLPAGYPVYSNRGASGIDGLLSTAAGVQRASGKPTLAIVGDLSALYDLNALALLRQVSAPLVLIVVNNNGGQIFSLLPTPQSERERFYLMPQNVHFEHAAAMFELKYHRPQNWQELETAFADAWRTPTTTVIEMVVNDTDGAQTLQQLLAQVSHL
**Q.** B2 was tested. Which “stoichiometry N” value [1] did it give?
**A.** 2
